Reference: article PMC13161223, “Molecular anatomy of PLK1 master docking motifs” (Nature Communications, 2026)
Non-standard residues stand in square brackets, D forms with d. No end group written: not given here. pT = C[C@@H](OP(=O)(O)O)[C@H](N)C(=O)O; MBP = maltose-binding protein

B1: ^MBPCENP-U^58-114 (6xHis-MBP-TEV-CENP-U^58-114), unphosphorylated (domain or fragment, human, UniProt Q71F23 58-114, looked up)
chain: {6xHis-MBP-TEV}-LGENEKDEETYETFDPPLHSTAIYADEEEFSKHCGLSLSSTPPGKEAKRSSDTSGNE
notes: The plasmids paragraph speaks of expression in insect cells, the purification paragraph of E. coli; source: E. coli BL21 (DE3), purified (HisTALON, Resource Q, SEC); not shown: MBP, N-terminal, kept
B2: ^MBPCENP-U^58-83/pT78 (domain or fragment, human, UniProt Q71F23 58-83, looked up)
chain: LGENEKDEETYETFDPPLHS[pT]AIYAD
modifications: also: N-terminal MBP fusion protein
notes: CENP-U (PBIP1), human, residues 58-83 (Motif 1); also called PLK1-phosphorylated ^MBPCENP-U^58-83; phosphorylated Motif 1; source: E. coli BL21 (DE3), purified; not shown: MBP, N-terminal, kept
B3: ^MBPCENP-U^58-114/pT78/F87A/T98V (domain or fragment, human, UniProt Q71F23 58-114, looked up)
chain: LGENEKDEETYETFDPPLHS[pT]AIYADEEEASKHCGLSLSSVPPGKEAKRSSDTSGNE
modifications: also: N-terminal MBP fusion protein
notes: source: E. coli BL21 (DE3), purified; phosphorylated in vitro with only PLK1; not shown: MBP, N-terminal, kept
B4: ^MBPCENP-U^58-83 (6xHis-MBP-TEV-CENP-U^58-83), unphosphorylated (domain or fragment, human, UniProt Q71F23 58-83, looked up)
chain: {6xHis-MBP-TEV}-LGENEKDEETYETFDPPLHSTAIYAD
notes: CENP-U (PBIP1), human, residues 58-83 (Motif 1); also called Motif 1; unphosphorylated Motif 1; source: E. coli BL21 (DE3), purified (HisTALON, Resource Q, SEC); not shown: MBP, N-terminal, kept
B5: ^MBPCENP-U^58-83/Y68A/F71A/pT78 (domain or fragment, human, UniProt Q71F23 58-83, looked up)
chain: LGENEKDEETAETADPPLHS[pT]AIYAD
modifications: also: N-terminal MBP fusion protein
notes: CENP-U (PBIP1), human, residues 58-83 (Motif 1); source: E. coli BL21 (DE3), purified; not shown: MBP, N-terminal, kept
B6: ^MBPCENP-U^58-83/F71A/pT78 (domain or fragment, human, UniProt Q71F23 58-83, looked up)
chain: LGENEKDEETYETADPPLHS[pT]AIYAD
modifications: also: N-terminal MBP fusion protein
notes: as for B5
B7: biotin-conjugated ^MBPCENP-U^58-114/pT78 (immobilised ligand of BLI) (domain or fragment, human, UniProt Q71F23 58-114, looked up)
chain: LGENEKDEETYETFDPPLHS[pT]AIYADEEEFSKHCGLSLSSTPPGKEAKRSSDTSGNE
modifications: not fully specified (N-terminus); also: N-terminal MBP fusion protein, C-terminal PLPETG tag ligated by sortase A to Gly4-biotin
notes: source: E. coli BL21 (DE3), purified; phosphorylated in vitro with PLK1; biotin-labelled with sortase A; not shown: MBP, N-terminal, kept; PLPETG peptide conjugated with Gly-Gly-Gly-Gly-Biotin, C-terminal, kept
B8: ^MBPCENP-U^84-114 F87A, phosphorylated with CDK1 (domain or fragment, human, UniProt Q71F23 84-114, looked up)
chain: EEEASKHCGLSLSS[pT]PPGKEAKRSSDTSGNE
modifications: also: N-terminal MBP fusion protein
notes: also called F87 to alanine mutant of Motif 2; source: E. coli BL21 (DE3), purified; phosphorylated in vitro with CDK1; not shown: MBP, N-terminal, kept

What was measured:
[1] = biological target: Biotin-conjugated ^MBPPBD (immobilised ligand of BLI) (human) (UniProt P53350); assay: BLI; biotin-conjugated ^MBPPBD immobilised on streptavidin sensors, CENP-U variants as analyte; 25 °C, 20 mM HEPES pH 7.5, 2.5% glycerol, 300 mM NaCl, 0.1 mM TCEP, 0.3 g/L BSA, 0.05% Tween20; KD from koff/kon of the global fit
Biotin-conjugated ^MBPPBD (immobilised ligand of BLI) (human), sequence (P53350 345-603): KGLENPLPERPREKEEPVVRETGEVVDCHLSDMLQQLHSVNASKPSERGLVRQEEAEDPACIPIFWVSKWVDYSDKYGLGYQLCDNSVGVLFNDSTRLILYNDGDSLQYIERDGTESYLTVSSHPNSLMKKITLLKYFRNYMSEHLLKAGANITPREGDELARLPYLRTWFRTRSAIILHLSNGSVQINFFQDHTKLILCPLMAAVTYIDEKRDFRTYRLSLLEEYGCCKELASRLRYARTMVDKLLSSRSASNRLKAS

[2] = biological target: singly phosphorylated pT98 peptide of CENP-U (ITC) (human); assay: ITC; phosphorylated CENP-U construct in the cell, ^MBPPBD in the syringe; 25 °C, 20 mM Hepes pH 7.5, 300 mM NaCl, 1 mM TCEP, 1% glycerol; one set of sites model
[3] = biological target: T1, ^MBPPBD (6xHis-MBP-TEV-PLK1^345-603) (human, UniProt P53350 345-603); assay: SEC; analytical SEC, Superdex 200 5/150, 20 mM Bis-tris/HCl pH 6.5, 250 mM NaCl, 5% glycerol, 1 mM TCEP, 4 °C; PBD added 2:1 to the CENP-U variant (10 µM ^MBPPBD and 5 µM ^MBPCENP-U^58-114 in Fig. 1C); settings: both partners purified
T1 construct: PLK1, human, residues 345-603 (Polo-box domain construct); The plasmids paragraph speaks of expression in insect cells, the purification paragraph of E. coli BL21 (DE3); TEV site between MBP and PLK1; source: E. coli BL21 (DE3), purified (HisTALON, SEC); not shown: MBP, N-terminal, kept
T1 sequence (P53350 345-603): as above

[4] = biological target: T2, Biotin-conjugated ^MBPPBD (immobilised ligand of BLI) (human, UniProt P53350 345-603, biotin (Gly-Gly-Gly-Gly-Biotin conjugated to the C-terminal PLPETG peptide by sortase A)); assay: BLI; biotin-conjugated ^MBPPBD immobilised on streptavidin sensors, CENP-U variants as analyte; 25 °C, 20 mM HEPES pH 7.5, 2.5% glycerol, 300 mM NaCl, 0.1 mM TCEP, 0.3 g/L BSA, 0.05% Tween20; KD from koff/kon of the global fit; settings: both partners purified
T2 construct: PLK1, human, residues 345-603 (Polo-box domain construct); As m1 with a C-terminal PLPETG peptide used for biotin labelling; held on streptavidin sensors; also called immobilized PBD; source: E. coli BL21 (DE3), purified (HisTALON, SEC), biotin-labelled with sortase A; not shown: MBP, N-terminal, kept; PLPETG peptide conjugated with Gly-Gly-Gly-Gly-Biotin, C-terminal, kept
T2 sequence (P53350 345-603): as above

[5] = biological target: T1, ^MBPPBD (6xHis-MBP-TEV-PLK1^345-603); assay: ITC; phosphorylated CENP-U construct in the cell, ^MBPPBD in the syringe; 25 °C, 20 mM Hepes pH 7.5, 300 mM NaCl, 1 mM TCEP, 1% glycerol; one set of sites model; settings: both partners purified
[6] = biological target: T1, ^MBPPBD (6xHis-MBP-TEV-PLK1^345-603); assay: BLI; biotin-conjugated phosphorylated ^MBPCENP-U^58-114 immobilised on streptavidin sensors, ^MBPPBD or ^6HisPLK1^FL as analyte; 25 °C, 20 mM HEPES pH 7.5, 2.5% glycerol, 300 mM NaCl, 0.1 mM TCEP, 0.3 g/L BSA, 0.05% Tween20; one site for pT78, two sites (KD1, KD2) for pT98 and pT78/pT98; settings: both partners purified
[7] = biological target: T3, ^6HisPLK1^FL (6xHis-TEV-PLK1, full length) (human, UniProt P53350 1-603); assay: as above; settings: both partners purified
T3 construct: PLK1, human, 603 residues, full length; also called full length PLK1; source: insect cells (plasmid from a previous study), purified (HisTALON, SEC); not shown: 6xHis, N-terminal, kept
T3 sequence (P53350 whole entry): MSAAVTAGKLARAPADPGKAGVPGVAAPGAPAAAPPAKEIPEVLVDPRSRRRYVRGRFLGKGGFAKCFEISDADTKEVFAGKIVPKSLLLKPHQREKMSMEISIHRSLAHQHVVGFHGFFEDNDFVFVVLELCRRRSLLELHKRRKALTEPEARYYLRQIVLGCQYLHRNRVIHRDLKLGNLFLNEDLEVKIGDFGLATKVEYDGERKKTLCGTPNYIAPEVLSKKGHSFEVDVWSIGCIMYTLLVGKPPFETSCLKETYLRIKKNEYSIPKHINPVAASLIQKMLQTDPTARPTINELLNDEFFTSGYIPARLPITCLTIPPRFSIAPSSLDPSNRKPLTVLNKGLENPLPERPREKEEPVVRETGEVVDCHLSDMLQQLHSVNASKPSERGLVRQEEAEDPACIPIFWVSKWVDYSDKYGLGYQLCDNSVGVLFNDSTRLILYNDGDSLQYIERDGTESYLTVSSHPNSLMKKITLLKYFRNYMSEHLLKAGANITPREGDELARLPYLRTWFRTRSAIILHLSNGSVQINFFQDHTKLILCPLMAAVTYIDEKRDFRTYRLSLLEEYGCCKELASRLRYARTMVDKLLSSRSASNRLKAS

Molecule	Kd [4] [nM]	koff [4] [s⁻¹]	kon [4] [M⁻¹ s⁻¹]	also measured
^MBPCENP-U^84-114/pT98 (from UniProt Q71F23 84-114) (domain or fragment)				Kd [1]: 400 nM; koff [1]: 0.0028 s⁻¹; kon [1]: 7100 M⁻¹ s⁻¹
^MBPPBD (6xHis-MBP-TEV-PLK1^345-603) (from UniProt P53350 345-603) (domain or fragment)				Kd [2]: 380 nM
B1				binding result [3]: binds
B2	2.5	0.00034	140000	
B3	7.2	0.001	140000	
LGENEKDEETYETFDPPLHS[pT]AIYAD (domain or fragment) [singly phosphorylated pT78 peptide of CENP-U (ITC)]				Kd [5]: ~1.9 nM
B4	10000	0.00028	28	
B5	230	0.011	47000	
B6	88	0.0077	87000	
B7				Kd [6]: 1.9 nM; koff [6]: 0.00052 s⁻¹; kon [6]: 280000 M⁻¹ s⁻¹; Kd [7]: 22 nM; koff [7]: 0.0033 s⁻¹; kon [7]: 150000 M⁻¹ s⁻¹
B8				binding result [3]: binds
